Assay results reported in patent publication US20110268740A1.

B1: scFv-D005-msFcγ2c (Fc fusion)
chain: DADPAQAAELVMTQSPDSLAVSLGERATINCKSSQSVLYTSNNKNYLGWYQQKPGQPPNLLIYWASTRESGVPDRFSGSGSGTDFTLTINSVQAEDVAVYYCQQYFMTPITFGQGTRLEIKGGSSRSSSSGGGGSGGGGEVQLVESGGALVQPGRSLRLSCRTSGLNFGDYPINWVRQAPGKGLEWVGFIKSKSYGVTTEFAASVEGRFTISRDDSRGIAYLQMNSLKTEDTAVYYCTSSSGFLYYFDYWGQGTLVTVSSASTKGPSVTSGQAGRKLEPRVPITQNPCPPLKECPPCAAPDLLGGPSVFIFPPKIKDVLMISLSPMVTCVVVDVSEDDPDVQISWFVNNVEVHTAQTQTHREDYNSTLRVVSALPIQHQDWMSGKEFKCKVNNRALPSPIEKTISKPRGPVRAPQVYVLPPPAEEMTKKEFSLTCMITGFLPAEIAVDWTSNGRTEQNYKNTATVLDSDGSYFMYSKLRVQKSTWERGSLFACSVVHEGLHNHLTTKTISRSLGK
B2: scFv-F052-msFcγ2c (Fc fusion)
chain: DADPAQAAERVMTQSPDALAVSLGERATINCKSSQSLLYSSNNKNYLAWYQKKPGQPPKLLIYWASTRESGVPDRFSGSGSGTEFTLTINSVQAEDVAVYYCQQYFMTPITFGQGTKLEIKGGSSRSSSSGGGGSGGGGQVQLQESGGALVQPGRSLRLSCRTSGLNFGDYPINWVRQAPGKGLEWVGFIKSKSYGVTTEFAASVEGRFTISRDDSRGIAYLQMNSLKTEDTAVYYCTSSSGFLYYFDYWGQGTLVTVSSASTKGPSVTSGQAGRKLEPRVPITQNPCPPLKECPPCAAPDLLGGPSVFIFPPKIKDVLMISLSPMVTCVVVDVSEDDPDVQISWFVNNVEVHTAQTQTHREDYNSTLRVVSALPIQHQDWMSGKEFKCKVNNRALPSPIEKTISKPRGPVRAPQVYVLPPPAEEMTKKEFSLTCMITGFLPAEIAVDWTSNGRTEQNYKNTATVLDSDGSYFMYSKLRVQKSTWERGSLFACSVVHEGLHNHLTTKTISRSLGK
B3: M2e-short (peptide)
peptide: SLLTEVETPIRNEWGC
modifications: not checked
B4: M2e consensus peptide (free, soluble) (peptide)
peptide: SLLTEVETPIRNEWGCRCNDSSD
modifications: not checked

Experiments:
[1] = biological target: M2e consensus peptide (free, soluble) (Influenza A virus (consensus of H1, H2 and H3 subtypes of human Influenza A viruses)); assay: Friguet ELISA, free M2e peptide in solution
[2] = biological target: M2e-short (Influenza A virus (consensus)); assay: ELISA, apparent affinity, purified scFv-msFcγ2c on immobilised M2e-short
[3] = biological target: scFv-D005-msFcγ2c
[4] = biological target: scFv-F052-msFcγ2c

| Binder | Kd [1] | EC50 [2] | EC50 [3] | EC50 [4] |
| --- | --- | --- | --- | --- |
| B1 | 0.004 µM | 80.9 pM |  |  |
| B2 | 0.005 µM | 62.8 pM |  |  |
| B3 |  |  | 27.5 µM | 46.8 µM |
| B4 |  |  | 18.8 µM | 22 µM |
